Test results reported in publication PMC3257521 (Biochemistry, 2011).

Legend:
Pnc1 [1] = molecular target: T1, Pnc1 (Saccharomyces cerevisiae, UniProt P53184); type: biochemical, S. cerevisiae
[2] = test system: nicotinamidase from S. cerevisiae; settings: S. cerevisiae Pnc1, French et al.; cited from earlier work
[3] = molecular target: nicotinamidase from Tortula cremoris; settings: cited from earlier work
Pnc1 [4] = molecular target: T1, Pnc1; test: Pnc1 competitive inhibition; type: biochemical, S. cerevisiae; settings: for inhibition pattern: double-reciprocal analysis versus nicotinamide
[5] = molecular target: nicotinamidase from Fleischmann’s yeast; settings: cited from earlier work
[6] = molecular target: nicotinamidase from M. lysodeikticus; settings: cited from earlier work
Pnc1 [7] = molecular target: T1, Pnc1; test: Effect of EDTA or ZnCl2 on Pnc1 activity; type: biochemical, S. cerevisiae; settings: data not shown
Pnc1 [8] = molecular target: T1, Pnc1; test: Product inhibition by ammonium ion, HPLC assay; type: biochemical, S. cerevisiae; settings: for inhibition pattern: versus nicotinamide, data not shown
S. cerevisiae Pnc1 = settings: cited from earlier work
[9] = molecular target: nicotinamidase from Mycobacterium tuberculosis; settings: cited from earlier work
Pnc1 [10] = molecular target: T1, Pnc1; test: HPLC assay of substrate activity; type: biochemical, S. cerevisiae; settings: for kcat: HPLC assay, no activity above detection limit of 10^−5 s^−1
Pnc1 [11] = molecular target: T1, Pnc1; settings: 100 mM ammonium chloride and 5 mM nicotinic acid, 5 µM Pnc1, 150 minutes, pH 7.5; no nicotinamide detected
Pnc1 [12] = molecular target: T1, Pnc1; test: 15N kinetic isotope effect with substrates; type: biochemical, S. cerevisiae
[13] = substrate: NC(=O)c1ccccc1; type: biochemical, S. cerevisiae; settings: other: substrate of Pnc1, pH 7.5, 25.0 °C
[14] = substrate: Cc1cncc(C(N)=O)c1; type: biochemical, S. cerevisiae; settings: other: substrate of Pnc1, pH 7.5, 25.0 °C
[15] = substrate: NC(=S)c1cccnc1; type: biochemical, S. cerevisiae; settings: other: substrate of Pnc1, pH 7.5, 25.0 °C
[16] = substrate: NC(=O)c1cccnc1; type: biochemical, S. cerevisiae; settings: other: substrate of Pnc1, pH 7.5, 25.0 °C
[17] = substrate: NC(=O)c1cnccn1; type: biochemical, S. cerevisiae; settings: other: substrate of Pnc1, pH 7.5, 25.0 °C
Pnc1 WT or mutant [18] = test: 13C kinetic isotope effect of Pnc1 mutants; type: biochemical, S. cerevisiae; settings: substrate nicotinamide
Pnc1 WT or mutant [19] = test: Steady-state kinetic parameters of Pnc1 mutants, enzyme-coupled assay; type: biochemical, S. cerevisiae; settings: substrate nicotinamide; for kcat: pH 7.5
Pnc1 WT or mutant [20] = test: 15N kinetic isotope effect of Pnc1 mutants; type: biochemical, S. cerevisiae; settings: substrate nicotinamide

In the case of `C[n+]1cccc(C(N)=O)c1` [1-methylnicotinamide], the “fold decreased kcat/Km compared to nicotinamide” value (Pnc1 [1]) is listed as 8400 fold and the substrate activity [2] is listed as “no activity”.

In the case of `CC(=O)c1cccnc1` [3-acetylpyridine], the Ki [3] is listed as 305 µM, the Ki (Pnc1 [4]) is listed as 316 ± 101 µM and the inhibition pattern (Pnc1 [4]) is listed as “competitive inhibition”. For the same molecule, the Ki [5] was 65 µM and the Ki [6] was 160 µM.

For `O=C(O)CN(CCN(CC(=O)O)CC(=O)O)CC(=O)O` [EDTA, ethylenediaminetetraacetic acid], the “inhibition of Pnc1” value (Pnc1 [7]; 10 mM) was “did not inhibit”.

In the case of `[Cl-].[Cl-].[Zn+2]` [ZnCl2], the “effect on activity of wild type Pnc1” value (Pnc1 [7]; 2 mM) is reported as “failed to increase activity”.

For `Cl.N` [ammonium chloride], the “concentration required for inhibition” value (Pnc1 [8]) was “greater than 10 mM”, the inhibition pattern (Pnc1 [8]) was “non-competitive inhibition” and the inhibition pattern (Pnc1 [8]; listed as ammonium ion) was “non-competitive inhibition patterns”.

For `O=Cc1ccccc1` [benzaldehyde], the Ki (Pnc1 [4]) is listed as 20600 ± 5700 µM, the “fold less potent inhibitor compared to nicotinaldehyde” value (Pnc1 [4]) is listed as 22,000 fold and the Ki [6] is listed as 1800 µM.

In the case of `O=Cc1cccnc1` [nicotinaldehyde], the Ki (Pnc1 [4]) is given as 0.94 ± 0.35 µM, the “Ki fold below the Km value of nicotinamide” value (Pnc1 [4]; vs Km 9.6 µM for nicotinamide) is given as 10 fold and the Ki [6] is given as 0.018 µM. For the same molecule, the Ki (S. cerevisiae Pnc1) was 1.4 µM and the Ki [9] was 0.29 µM.

With `NC(=O)c1ccc[n+]([C@@H]2O[C@H](COP(=O)([O-])O)[C@@H](O)[C@H]2O)c1` [nicotinamide mononucleotide (NMN^+), nicotinamide mononucleotide] the substrate activity (Pnc1 [10]) was “not substrates” and the kcat (Pnc1 [10]) was < 10^−5 ^c s^−1.

For `O=C(O)c1cccnc1` [nicotinic acid], the Ki (Pnc1 [4]) was 120 ± 19 µM, the inhibition pattern (Pnc1 [4]) was “competitive inhibition patterns” and the “reverse reaction rate (upper estimate)” value (Pnc1 [11]) was < 10^−5 s^−1. For the same molecule, the inhibition (S. cerevisiae Pnc1; French et al.) was “no inhibition”.

For `O=C(O)c1cnccn1` [pyrazinoic acid], the Ki (Pnc1 [4]) was 6700 ± 1700 µM, the “fold higher Ki value compared to nicotinic acid” value (Pnc1 [4]) was 56 fold and the inhibition pattern (Pnc1 [4]) was “competitive inhibition patterns”.

In the case of `NC(=S)c1cccnc1` [thionicotinamide], the “increase in 15N KIE value compared to nicotinamide” value (Pnc1 [12]) is reported as 1.4% and the “15N KIE” value (Pnc1 [12]; on V/K, pH 7.5) is reported as 1.0262 ± 0.0019.

With `NC(=O)C1=CN([C@@H]2O[C@H](COP(=O)(O)OP(=O)(O)OC[C@H]3O[C@@H](n4cnc5c(N)ncnc54)[C@H](O)[C@@H]3O)[C@@H](O)[C@H]2O)C=CC1` [β-nicotinamide adenine dinucleotide] the substrate activity (Pnc1 [10]) was “not substrates”, the kcat (Pnc1 [10]) was < 10^−5 ^c s^−1 and the kcat (Pnc1 [10]; listed as NAD^+) was < 10^−5 s^−1.

B1: Pnc1 (Saccharomyces cerevisiae S288C) (protein)
chain: MKTLIVVDMQNDFISPLGSLTVPKGEELINPISDLMQDADRDWHRIVVTRDWHPSRHISFAKNHKDKEPYSTYTYHSPRPGDDSTQEGILWPVHCVKNTWGSQLVDQIMDQVVTKHIKIVDKGFLTDREYYSAFHDIWNFHKTDMNKYLEKHHTDEVYIVGVALEYCVKATAISAAELGYKTTVLLDYTRPISDDPEVINKVKEELKAHNINVVDK
Work on B1 yielded a Km [13] of 25 ± 7 µM, a kcat [13] of 0.0088 ± 0.0004 s⁻¹ and a kcat/Km [13] of 350 ± 90 M⁻¹ s⁻¹. For the same molecule, the Km [14] was 61 ± 6 µM, the kcat [14] was 1.75 ± 0.05 s⁻¹ and the kcat/Km [14] was 29000 ± 2000 M⁻¹ s⁻¹. The kcat/Km [15] was 50 ± 17 M⁻¹ s⁻¹, the Km [16] was 9.6 ± 2.1 µM and the kcat [16] was 0.69 ± 0.04 s⁻¹. It also gave a kcat/Km [16] of 72000 ± 12000 M⁻¹ s⁻¹, a Km [17] of 157 ± 16 µM and a kcat [17] of 2.56 ± 0.1 s⁻¹. For the same molecule, the kcat/Km [17] was 16000 ± 1000 M⁻¹ s⁻¹, the “13C KIE” value (Pnc1 WT or mutant [18]; as percent) was ~ 1.25% and the “13C KIE” value (Pnc1 WT or mutant [18]; pH 7.5) was 1.0125 ± 0.0004. For the same molecule, the kcat (Pnc1 WT or mutant [19]) was 0.69 ± 0.04 s⁻¹, the “15N KIE” value (Pnc1 WT or mutant [20]; as percent) was ~ 1.25% and the “15N KIE” value (Pnc1 WT or mutant [20]; pH 7.5) was 1.0122 ± 0.0002.

B2: D8E (protein, UniProt P53184 1-216, looked up, variant D8E)
Nicotinamidase: MKTLIVVEMQNDFISPLGSLTVPKGEELINPISDLMQDADRDWHRIVVTRDWHPSRHISFAKNHKDKEPYSTYTYHSPRPGDDSTQEGILWPVHCVKNTWGSQLVDQIMDQVVTKHIKIVDKGFLTDREYYSAFHDIWNFHKTDMNKYLEKHHTDEVYIVGVALEYCVKATAISAAELGYKTTVLLDYTRPISDDPEVINKVKEELKAHNINVVDK
In the case of B2, the “13C KIE” value (Pnc1 WT or mutant [18]; pH 7.5) is reported as 1.0258 ± 0.0012, the “fold lower kcat compared to Pnc1 WT” value (Pnc1 WT or mutant [19]) is reported as 100 fold and the kcat (Pnc1 WT or mutant [19]) is reported as 0.0070 ± 0.0001 s⁻¹. The “15N KIE” value (Pnc1 WT or mutant [20]; pH 7.5) was 1.0218 ± 0.0015.

B3: H53A (protein, UniProt P53184 1-216, looked up, variant H53A)
Nicotinamidase: MKTLIVVDMQNDFISPLGSLTVPKGEELINPISDLMQDADRDWHRIVVTRDWAPSRHISFAKNHKDKEPYSTYTYHSPRPGDDSTQEGILWPVHCVKNTWGSQLVDQIMDQVVTKHIKIVDKGFLTDREYYSAFHDIWNFHKTDMNKYLEKHHTDEVYIVGVALEYCVKATAISAAELGYKTTVLLDYTRPISDDPEVINKVKEELKAHNINVVDK
In the case of B3, the kcat (Pnc1 WT or mutant [19]) is reported as 0.014 ± 0.002 s⁻¹.

B4: H94A (protein, UniProt P53184 1-216, looked up, variant H94A)
Nicotinamidase: MKTLIVVDMQNDFISPLGSLTVPKGEELINPISDLMQDADRDWHRIVVTRDWHPSRHISFAKNHKDKEPYSTYTYHSPRPGDDSTQEGILWPVACVKNTWGSQLVDQIMDQVVTKHIKIVDKGFLTDREYYSAFHDIWNFHKTDMNKYLEKHHTDEVYIVGVALEYCVKATAISAAELGYKTTVLLDYTRPISDDPEVINKVKEELKAHNINVVDK
B4 showed a kcat (Pnc1 WT or mutant [19]) of 0.020 ± 0.002 s⁻¹.

B5: D51N (protein, UniProt P53184 1-216, looked up, variant D51N)
Nicotinamidase: MKTLIVVDMQNDFISPLGSLTVPKGEELINPISDLMQDADRDWHRIVVTRNWHPSRHISFAKNHKDKEPYSTYTYHSPRPGDDSTQEGILWPVHCVKNTWGSQLVDQIMDQVVTKHIKIVDKGFLTDREYYSAFHDIWNFHKTDMNKYLEKHHTDEVYIVGVALEYCVKATAISAAELGYKTTVLLDYTRPISDDPEVINKVKEELKAHNINVVDK
For B5, the “13C KIE” value (Pnc1 WT or mutant [18]; as percent) was ~ 0.5%, the “13C KIE” value (Pnc1 WT or mutant [18]; pH 7.5) was 1.0058 ± 0.0006 and the “fold more active than the D51A mutant” value (Pnc1 WT or mutant [19]) was 3 fold. The kcat (Pnc1 WT or mutant [19]) was 0.064 ± 0.012 s⁻¹, the “15N KIE” value (Pnc1 WT or mutant [20]; as percent) was ~ 0.5% and the “15N KIE” value (Pnc1 WT or mutant [20]; pH 7.5) was 1.0047 ± 0.0006.

B6: D8A (protein, UniProt P53184 1-216, looked up, variant D8A)
Nicotinamidase: MKTLIVVAMQNDFISPLGSLTVPKGEELINPISDLMQDADRDWHRIVVTRDWHPSRHISFAKNHKDKEPYSTYTYHSPRPGDDSTQEGILWPVHCVKNTWGSQLVDQIMDQVVTKHIKIVDKGFLTDREYYSAFHDIWNFHKTDMNKYLEKHHTDEVYIVGVALEYCVKATAISAAELGYKTTVLLDYTRPISDDPEVINKVKEELKAHNINVVDK
In the case of B6, the “fold lower kcat compared to Pnc1 WT” value (Pnc1 WT or mutant [19]) is reported as 767 fold and the kcat (Pnc1 WT or mutant [19]) is reported as 0.0009 ± 0.0001 s⁻¹.

B7: K122A (protein, UniProt P53184 1-216, looked up, variant K122A)
Nicotinamidase: MKTLIVVDMQNDFISPLGSLTVPKGEELINPISDLMQDADRDWHRIVVTRDWHPSRHISFAKNHKDKEPYSTYTYHSPRPGDDSTQEGILWPVHCVKNTWGSQLVDQIMDQVVTKHIKIVDAGFLTDREYYSAFHDIWNFHKTDMNKYLEKHHTDEVYIVGVALEYCVKATAISAAELGYKTTVLLDYTRPISDDPEVINKVKEELKAHNINVVDK
In the case of B7, the “fold lower kcat compared to Pnc1 WT” value (Pnc1 WT or mutant [19]) is reported as 16 fold and the kcat (Pnc1 WT or mutant [19]) is reported as 0.044 ± 0.023 s⁻¹.

B8: D8N (protein, UniProt P53184 1-216, looked up, variant D8N)
Nicotinamidase: MKTLIVVNMQNDFISPLGSLTVPKGEELINPISDLMQDADRDWHRIVVTRDWHPSRHISFAKNHKDKEPYSTYTYHSPRPGDDSTQEGILWPVHCVKNTWGSQLVDQIMDQVVTKHIKIVDKGFLTDREYYSAFHDIWNFHKTDMNKYLEKHHTDEVYIVGVALEYCVKATAISAAELGYKTTVLLDYTRPISDDPEVINKVKEELKAHNINVVDK
In the case of B8, the “fold lower kcat compared to Pnc1 WT” value (Pnc1 WT or mutant [19]) is reported as 1150 fold and the kcat (Pnc1 WT or mutant [19]) is reported as 0.0006 ± 0.0001 s⁻¹.

B9: D51A (protein, UniProt P53184 1-216, looked up, variant D51A)
Nicotinamidase: MKTLIVVDMQNDFISPLGSLTVPKGEELINPISDLMQDADRDWHRIVVTRAWHPSRHISFAKNHKDKEPYSTYTYHSPRPGDDSTQEGILWPVHCVKNTWGSQLVDQIMDQVVTKHIKIVDKGFLTDREYYSAFHDIWNFHKTDMNKYLEKHHTDEVYIVGVALEYCVKATAISAAELGYKTTVLLDYTRPISDDPEVINKVKEELKAHNINVVDK
For B9, the “13C KIE” value (Pnc1 WT or mutant [18]; pH 7.5) was 1.0075 ± 0.0015, the kcat (Pnc1 WT or mutant [19]) was 0.020 ± 0.005 s⁻¹ and the “15N KIE” value (Pnc1 WT or mutant [20]; pH 7.5) was 1.0166 ± 0.0018.
